According to article PMC9482650, “Quantitative fragmentomics allow affinity mapping of interactomes” (Nature Communications, 2022):

T1: PTPN4, P29074
T1 sequence (P29074 512-599, limits assumed, looked up): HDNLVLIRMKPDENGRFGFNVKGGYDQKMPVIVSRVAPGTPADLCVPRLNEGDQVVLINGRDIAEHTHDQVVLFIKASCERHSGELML

T2: PDZD8, Q8NEN9
T2 sequence (Q8NEN9 361-459, limits assumed, looked up): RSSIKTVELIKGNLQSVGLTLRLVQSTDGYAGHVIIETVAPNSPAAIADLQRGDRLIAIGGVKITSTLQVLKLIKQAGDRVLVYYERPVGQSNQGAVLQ

T3: MPDZ_11, O75970
T3 sequence (O75970 1720-1817, limits assumed, looked up): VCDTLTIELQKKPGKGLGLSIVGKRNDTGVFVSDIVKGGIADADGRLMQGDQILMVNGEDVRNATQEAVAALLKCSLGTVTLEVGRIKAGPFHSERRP

T4: MPDZ_13, O75970
T4 sequence (O75970 1982-2070, limits assumed, looked up): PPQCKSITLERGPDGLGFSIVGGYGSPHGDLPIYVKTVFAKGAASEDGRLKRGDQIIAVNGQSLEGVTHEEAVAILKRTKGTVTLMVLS

T5: MPDZ_7, O75970
T5 sequence (O75970 1146-1253, limits assumed, looked up): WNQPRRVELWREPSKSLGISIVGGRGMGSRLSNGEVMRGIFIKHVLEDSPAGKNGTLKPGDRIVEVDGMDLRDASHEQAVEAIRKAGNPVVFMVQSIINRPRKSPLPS

T6: SNTB2, Q13425
T6 sequence (Q13425 110-208, limits assumed, looked up): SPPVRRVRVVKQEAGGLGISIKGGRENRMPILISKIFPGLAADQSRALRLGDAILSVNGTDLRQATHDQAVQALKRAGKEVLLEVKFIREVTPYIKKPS

T7: SHANK2, Q9UPX8
T7 sequence (Q9UPX8 621-730, limits assumed, looked up): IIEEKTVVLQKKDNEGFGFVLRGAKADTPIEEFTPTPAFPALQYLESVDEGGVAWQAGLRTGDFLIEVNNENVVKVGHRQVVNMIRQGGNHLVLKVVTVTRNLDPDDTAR

T8: SIPA1L3, O60292
T8 sequence (O60292 961-1052, limits assumed, looked up): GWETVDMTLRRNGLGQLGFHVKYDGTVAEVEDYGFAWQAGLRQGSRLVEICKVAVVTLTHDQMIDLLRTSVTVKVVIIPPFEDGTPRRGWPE

T9: MAGI2_1, Q86UL8
T9 sequence (Q86UL8 12-111, limits assumed, looked up): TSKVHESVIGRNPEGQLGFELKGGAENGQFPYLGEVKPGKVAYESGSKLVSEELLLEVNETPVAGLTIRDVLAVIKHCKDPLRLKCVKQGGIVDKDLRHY

T10: PDZD2_3, O15018
T10 sequence (O15018 581-682, limits assumed, looked up): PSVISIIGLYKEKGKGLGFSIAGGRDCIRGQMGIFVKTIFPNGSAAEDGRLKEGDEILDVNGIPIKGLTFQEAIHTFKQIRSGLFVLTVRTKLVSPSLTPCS

T11: DVL1, O14640
T11 sequence (O14640 246-333, limits assumed, looked up): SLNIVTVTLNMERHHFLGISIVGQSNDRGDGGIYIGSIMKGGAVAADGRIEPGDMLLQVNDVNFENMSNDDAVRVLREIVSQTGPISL

T12: PDZD2_4, O15018
T12 sequence (O15018 723-823, limits assumed, looked up): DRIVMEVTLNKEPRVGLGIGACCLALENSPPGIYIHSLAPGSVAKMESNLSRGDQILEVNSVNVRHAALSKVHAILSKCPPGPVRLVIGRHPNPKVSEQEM

T13: NHERF1_1, O14745
T13 sequence (O14745 9-104, limits assumed, looked up): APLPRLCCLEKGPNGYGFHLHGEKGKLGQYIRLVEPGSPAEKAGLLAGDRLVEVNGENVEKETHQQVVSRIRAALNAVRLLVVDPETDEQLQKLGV


Tests used:
Experiment in all cases: holdup assay
Parameters in all cases: key: below the threshold = too weak to quantify, mostly under pKd 3.1 to 4
Details in all cases: plain residues with an end cap or a label only (N-terminal biotin on a linker: ttds)
PTPN4, P29074 = target: T1, PTPN4, P29074
PDZD8, Q8NEN9 = target: T2, PDZD8, Q8NEN9
MPDZ_11, O75970 = target: T3, MPDZ_11, O75970
MPDZ_13, O75970 = target: T4, MPDZ_13, O75970
MPDZ_7, O75970 = target: T5, MPDZ_7, O75970
SNTB2, Q13425 = target: T6, SNTB2, Q13425
Inadl_7, Q8NI35 = target: Inadl_7, Q8NI35
SHANK2, Q9UPX8 = target: T7, SHANK2, Q9UPX8
SIPA1L3, O60292 = target: T8, SIPA1L3, O60292
MAGI2_1, Q86UL8 = target: T9, MAGI2_1, Q86UL8
MAGI3_4, Q5TCQ9 = target: MAGI3_4, Q5TCQ9
PARD3B_2, Q8TEW8 = target: PARD3B_2, Q8TEW8
NHERF2_1, Q15599 = target: NHERF2_1, Q15599
PDZRN4_2, Q6ZMN7 = target: PDZRN4_2, Q6ZMN7
GIPC3, Q8TF64 = target: GIPC3, Q8TF64
PDZD2_3, O15018 = target: T10, PDZD2_3, O15018
MAST3, O60307 = target: MAST3, O60307
RIMS2, Q9UQ26 = target: RIMS2, Q9UQ26
DVL1, O14640 = target: T11, DVL1, O14640
SCRIB_4, Q14160 = target: SCRIB_4, Q14160
TJP1_1, Q07157 = target: TJP1_1, Q07157
PDZD2_4, O15018 = target: T12, PDZD2_4, O15018
IL16_2, Q14005 = target: IL16_2, Q14005
CNKSR3, Q6P9H4 = target: CNKSR3, Q6P9H4
NHERF1_1, O14745 = target: T13, NHERF1_1, O14745

SCRIB_4, Q14160, sequence (Q14160 1095-1204): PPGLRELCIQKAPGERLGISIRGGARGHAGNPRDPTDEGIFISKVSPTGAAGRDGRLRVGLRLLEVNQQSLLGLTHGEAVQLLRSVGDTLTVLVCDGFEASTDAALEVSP
TJP1_1, Q07157, sequence (Q07157 18-120): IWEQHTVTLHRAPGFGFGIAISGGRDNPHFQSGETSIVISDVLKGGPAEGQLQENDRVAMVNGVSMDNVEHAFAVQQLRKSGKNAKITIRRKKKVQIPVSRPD
PDZRN4_2, Q6ZMN7, sequence (Q6ZMN7 389-498): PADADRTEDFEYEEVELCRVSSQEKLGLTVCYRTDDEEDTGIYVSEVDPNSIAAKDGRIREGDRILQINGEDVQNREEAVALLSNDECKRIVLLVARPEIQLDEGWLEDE
NHERF2_1, Q15599, sequence (Q15599 9-91): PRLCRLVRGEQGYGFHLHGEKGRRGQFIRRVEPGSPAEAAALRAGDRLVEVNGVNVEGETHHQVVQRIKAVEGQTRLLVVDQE
MAST3, O60307, sequence (O60307 945-1048): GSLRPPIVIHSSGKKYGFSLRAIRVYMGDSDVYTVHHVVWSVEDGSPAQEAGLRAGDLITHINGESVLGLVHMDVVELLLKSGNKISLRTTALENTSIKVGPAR
CNKSR3, Q6P9H4, sequence (Q6P9H4 203-303): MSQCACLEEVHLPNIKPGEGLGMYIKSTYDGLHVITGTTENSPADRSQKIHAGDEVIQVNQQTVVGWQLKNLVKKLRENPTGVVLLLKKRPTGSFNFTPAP
PARD3B_2, Q8TEW8, sequence (Q8TEW8 376-471): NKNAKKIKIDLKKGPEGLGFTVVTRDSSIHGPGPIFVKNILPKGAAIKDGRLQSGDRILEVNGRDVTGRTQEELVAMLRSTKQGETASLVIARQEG
Inadl_7, Q8NI35, sequence (Q8NI35 1219-1332): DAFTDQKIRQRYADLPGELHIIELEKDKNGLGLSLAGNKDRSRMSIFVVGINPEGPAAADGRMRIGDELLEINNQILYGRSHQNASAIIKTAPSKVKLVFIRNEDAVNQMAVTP
GIPC3, Q8TF64, sequence (Q8TF64 107-202): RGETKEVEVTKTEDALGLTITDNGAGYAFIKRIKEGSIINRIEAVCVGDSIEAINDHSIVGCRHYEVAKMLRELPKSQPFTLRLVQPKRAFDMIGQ
RIMS2, Q9UQ26, sequence (Q9UQ26 637-758): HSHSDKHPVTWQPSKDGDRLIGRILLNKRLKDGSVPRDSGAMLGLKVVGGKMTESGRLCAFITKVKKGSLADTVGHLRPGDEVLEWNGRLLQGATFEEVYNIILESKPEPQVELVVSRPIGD
MAGI3_4, Q5TCQ9, sequence (Q5TCQ9 716-815): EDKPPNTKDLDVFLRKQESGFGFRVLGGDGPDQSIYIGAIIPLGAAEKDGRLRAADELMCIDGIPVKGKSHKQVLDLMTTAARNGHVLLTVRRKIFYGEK
IL16_2, Q14005, sequence (Q14005 350-450): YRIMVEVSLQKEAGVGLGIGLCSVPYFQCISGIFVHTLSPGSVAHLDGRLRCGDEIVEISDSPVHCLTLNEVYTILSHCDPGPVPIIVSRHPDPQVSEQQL

| pKd (PTPN4, P29074) | pKd (PDZD8, Q8NEN9) | pKd (MPDZ_11, O75970) | pKd (MPDZ_13, O75970) | pKd (MPDZ_7, O75970) | pKd (SNTB2, Q13425) | pKd (Inadl_7, Q8NI35) | pKd (SHANK2, Q9UPX8) | pKd (SIPA1L3, O60292) | pKd (MAGI2_1, Q86UL8) | pKd (MAGI3_4, Q5TCQ9) | pKd (PARD3B_2, Q8TEW8) | pKd (NHERF2_1, Q15599) | pKd (PDZRN4_2, Q6ZMN7) | pKd (GIPC3, Q8TF64) | pKd (PDZD2_3, O15018) | pKd (MAST3, O60307) | pKd (RIMS2, Q9UQ26) | pKd (DVL1, O14640) | pKd (SCRIB_4, Q14160) | Binder | further results |
| --- | --- | --- | --- | --- | --- | --- | --- | --- | --- | --- | --- | --- | --- | --- | --- | --- | --- | --- | --- | --- | --- |
| 4.97 | below the threshold | below the threshold | below the threshold | 5.01 | 4.49 | below the threshold | 4.85 | below the threshold | below the threshold | below the threshold | below the threshold | 4.83 | below the threshold | 4.21 | 4.32 | 4.29 | below the threshold | below the threshold | 4.29 | STLTIFETAL [ABCC4, O15439] | pKd (TJP1_1, Q07157): below the threshold; pKd (PDZD2_4, O15018): below the threshold; pKd (IL16_2, Q14005): below the threshold; pKd (CNKSR3, Q6P9H4): below the threshold; pKd (NHERF1_1, O14745): 5.36 |
| 4.48 | below the threshold | below the threshold | below the threshold | below the threshold | below the threshold | below the threshold | below the threshold | below the threshold | below the threshold | below the threshold | below the threshold | below the threshold | below the threshold | below the threshold | below the threshold | below the threshold | below the threshold | below the threshold | below the threshold | QSARYRDTEL [TJP2, Q9UDY2] | pKd (TJP1_1, Q07157): below the threshold; pKd (PDZD2_4, O15018): below the threshold; pKd (IL16_2, Q14005): below the threshold; pKd (CNKSR3, Q6P9H4): below the threshold; pKd (NHERF1_1, O14745): below the threshold |
